Data as given in patent publication US20250368745A1 (published 2025).

T1: human IL-18BP (human, UniProt O95998 31-194)
T1 construct: UniProt printed as 095998; also called hIL-18BP
T1 sequence: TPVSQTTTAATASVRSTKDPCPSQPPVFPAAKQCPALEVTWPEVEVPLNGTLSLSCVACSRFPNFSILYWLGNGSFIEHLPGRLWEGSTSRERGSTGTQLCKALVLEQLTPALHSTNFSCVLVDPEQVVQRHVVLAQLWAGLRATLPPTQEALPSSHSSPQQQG

B1: SA301a HC-G97D (antibody, name in Kabat numbering, V domains shown)
VH: QVQLQESGPGLVKPSQTLSLTCTVSGYSITSDYNSHWIRQPPGKGLEWIGYIHYSGSTNYNPSLKSRVTISRDTSKNQFSLKLSSVTAADTAVYYCARNYDSIYVNYFDYWGQGTLVTVSS
VL: EIVLTQSPATLSLSPGERATLSCSASSSVSYMYWYQQKPGQAPRPLIYRTSNLASGIPARFSGSGSGTDFTLTISSLEPEDFAVYYCQQYHSYPTFGGGTKVEIK
notes: IgG1 kappa
B2: SA301a HC-G97I (antibody, name in Kabat numbering, V domains shown)
VH: QVQLQESGPGLVKPSQTLSLTCTVSGYSITSDYNSHWIRQPPGKGLEWIGYIHYSGSTNYNPSLKSRVTISRDTSKNQFSLKLSSVTAADTAVYYCARNYISIYVNYFDYWGQGTLVTVSS
VL: EIVLTQSPATLSLSPGERATLSCSASSSVSYMYWYQQKPGQAPRPLIYRTSNLASGIPARFSGSGSGTDFTLTISSLEPEDFAVYYCQQYHSYPTFGGGTKVEIK
notes: IgG1 kappa
B3: SA301a HC-G97H (antibody, name in Kabat numbering, V domains shown)
VH: QVQLQESGPGLVKPSQTLSLTCTVSGYSITSDYNSHWIRQPPGKGLEWIGYIHYSGSTNYNPSLKSRVTISRDTSKNQFSLKLSSVTAADTAVYYCARNYHSIYVNYFDYWGQGTLVTVSS
VL: EIVLTQSPATLSLSPGERATLSCSASSSVSYMYWYQQKPGQAPRPLIYRTSNLASGIPARFSGSGSGTDFTLTISSLEPEDFAVYYCQQYHSYPTFGGGTKVEIK
notes: IgG1 kappa
B4: SA301a HC-G97E (antibody, name in Kabat numbering, V domains shown)
VH: QVQLQESGPGLVKPSQTLSLTCTVSGYSITSDYNSHWIRQPPGKGLEWIGYIHYSGSTNYNPSLKSRVTISRDTSKNQFSLKLSSVTAADTAVYYCARNYESIYVNYFDYWGQGTLVTVSS
VL: EIVLTQSPATLSLSPGERATLSCSASSSVSYMYWYQQKPGQAPRPLIYRTSNLASGIPARFSGSGSGTDFTLTISSLEPEDFAVYYCQQYHSYPTFGGGTKVEIK
notes: IgG1 kappa
B5: SA301a HC-G97L (antibody, name in Kabat numbering, V domains shown)
VH: QVQLQESGPGLVKPSQTLSLTCTVSGYSITSDYNSHWIRQPPGKGLEWIGYIHYSGSTNYNPSLKSRVTISRDTSKNQFSLKLSSVTAADTAVYYCARNYLSIYVNYFDYWGQGTLVTVSS
VL: EIVLTQSPATLSLSPGERATLSCSASSSVSYMYWYQQKPGQAPRPLIYRTSNLASGIPARFSGSGSGTDFTLTISSLEPEDFAVYYCQQYHSYPTFGGGTKVEIK
notes: IgG1 kappa
B6: SA301a HC-G97M (antibody, name in Kabat numbering, V domains shown)
VH: QVQLQESGPGLVKPSQTLSLTCTVSGYSITSDYNSHWIRQPPGKGLEWIGYIHYSGSTNYNPSLKSRVTISRDTSKNQFSLKLSSVTAADTAVYYCARNYMSIYVNYFDYWGQGTLVTVSS
VL: EIVLTQSPATLSLSPGERATLSCSASSSVSYMYWYQQKPGQAPRPLIYRTSNLASGIPARFSGSGSGTDFTLTISSLEPEDFAVYYCQQYHSYPTFGGGTKVEIK
notes: IgG1 kappa
B7: SA301a HC-G97F (antibody, name in Kabat numbering, V domains shown)
VH: QVQLQESGPGLVKPSQTLSLTCTVSGYSITSDYNSHWIRQPPGKGLEWIGYIHYSGSTNYNPSLKSRVTISRDTSKNQFSLKLSSVTAADTAVYYCARNYFSIYVNYFDYWGQGTLVTVSS
VL: EIVLTQSPATLSLSPGERATLSCSASSSVSYMYWYQQKPGQAPRPLIYRTSNLASGIPARFSGSGSGTDFTLTISSLEPEDFAVYYCQQYHSYPTFGGGTKVEIK
notes: IgG1 kappa
B8: SA301a HC-G97N (antibody, name in Kabat numbering, V domains shown)
VH: QVQLQESGPGLVKPSQTLSLTCTVSGYSITSDYNSHWIRQPPGKGLEWIGYIHYSGSTNYNPSLKSRVTISRDTSKNQFSLKLSSVTAADTAVYYCARNYNSIYVNYFDYWGQGTLVTVSS
VL: EIVLTQSPATLSLSPGERATLSCSASSSVSYMYWYQQKPGQAPRPLIYRTSNLASGIPARFSGSGSGTDFTLTISSLEPEDFAVYYCQQYHSYPTFGGGTKVEIK
notes: IgG1 kappa
B9: SA301a HC-G97K (antibody, name in Kabat numbering, V domains shown)
VH: QVQLQESGPGLVKPSQTLSLTCTVSGYSITSDYNSHWIRQPPGKGLEWIGYIHYSGSTNYNPSLKSRVTISRDTSKNQFSLKLSSVTAADTAVYYCARNYKSIYVNYFDYWGQGTLVTVSS
VL: EIVLTQSPATLSLSPGERATLSCSASSSVSYMYWYQQKPGQAPRPLIYRTSNLASGIPARFSGSGSGTDFTLTISSLEPEDFAVYYCQQYHSYPTFGGGTKVEIK
notes: IgG1 kappa

biological target: T1, human IL-18BP; test: BLI, apparent KD

Q: For B1, which Kd is on record?
A: 0.46 nM

Q: How did the Kd turn out when B2 was run?
A: 7.83 nM

Q: How did the Kd turn out when B3 was run?
A: 1.57 nM

Q: Which Kd does the source give for B4 here?
A: 11.6 nM

Q: Which Kd does the source give for B5 here?
A: 3.7 nM

Q: B6 was tested. Which Kd did it give?
A: 0.19 nM

Q: Which Kd does the source give for B7 here?
A: 6.32 nM

Q: B8 was tested. Which Kd did it give?
A: 5.93 nM

Q: With B9 as the binder, how does the Kd read?
A: 1.46 nM
